Test results as given in publication doi:10.1101/2025.11.17.685403.
Where two headings read alike, the source gives them in different places.

Experiments:
Assay in all cases: fluorescence polarization
[1] = biological target: T1, RFS1 (cShu subunit);RIP1 (cShu subunit);SWS1 (cShu subunit) (Caenorhabditis elegans;Caenorhabditis …, UniProt P34348;Q21621;Q8MYM5 1-245;1-209;1-191, ||)
T1 sequence 1: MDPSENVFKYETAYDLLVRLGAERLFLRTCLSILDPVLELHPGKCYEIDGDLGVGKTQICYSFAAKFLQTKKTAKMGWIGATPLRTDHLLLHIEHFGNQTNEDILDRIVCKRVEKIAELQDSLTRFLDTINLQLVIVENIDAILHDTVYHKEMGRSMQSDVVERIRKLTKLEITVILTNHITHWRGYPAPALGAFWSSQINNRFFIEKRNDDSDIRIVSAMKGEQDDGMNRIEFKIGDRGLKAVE
T1 sequence 2: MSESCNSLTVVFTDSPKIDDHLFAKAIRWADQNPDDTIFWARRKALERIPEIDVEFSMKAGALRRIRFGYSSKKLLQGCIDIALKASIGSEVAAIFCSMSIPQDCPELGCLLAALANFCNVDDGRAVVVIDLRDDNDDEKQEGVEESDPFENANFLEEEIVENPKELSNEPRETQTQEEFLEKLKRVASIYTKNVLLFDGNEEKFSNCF
T1 sequence 3: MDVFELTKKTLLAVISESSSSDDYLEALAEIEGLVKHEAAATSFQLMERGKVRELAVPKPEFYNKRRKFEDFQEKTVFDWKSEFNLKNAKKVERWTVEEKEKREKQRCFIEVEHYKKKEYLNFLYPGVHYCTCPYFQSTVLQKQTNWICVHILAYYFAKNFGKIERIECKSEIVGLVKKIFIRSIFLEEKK

[2] = biological target: T2, RFS1 K56A (Walker A);RIP1 (cShu subunit);SWS1 (cShu subunit) (Caenorhabditis elegans;Caenorhabditis …, UniProt P34348;Q21621;Q8MYM5 1-245;1-209;1-191, K56A||)
T2 sequence 1: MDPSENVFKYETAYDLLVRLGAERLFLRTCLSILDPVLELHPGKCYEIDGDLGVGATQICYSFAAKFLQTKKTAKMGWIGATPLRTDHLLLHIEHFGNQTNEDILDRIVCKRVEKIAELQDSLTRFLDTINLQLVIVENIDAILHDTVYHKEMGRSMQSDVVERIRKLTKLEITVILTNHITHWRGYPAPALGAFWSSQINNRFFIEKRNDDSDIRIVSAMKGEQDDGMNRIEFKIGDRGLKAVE
T2 sequence 2: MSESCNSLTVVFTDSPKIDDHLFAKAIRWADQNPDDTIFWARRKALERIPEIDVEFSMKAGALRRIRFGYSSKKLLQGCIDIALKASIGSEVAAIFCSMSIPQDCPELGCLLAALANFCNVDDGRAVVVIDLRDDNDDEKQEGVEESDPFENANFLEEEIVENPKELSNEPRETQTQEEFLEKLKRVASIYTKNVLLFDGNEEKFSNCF
T2 sequence 3: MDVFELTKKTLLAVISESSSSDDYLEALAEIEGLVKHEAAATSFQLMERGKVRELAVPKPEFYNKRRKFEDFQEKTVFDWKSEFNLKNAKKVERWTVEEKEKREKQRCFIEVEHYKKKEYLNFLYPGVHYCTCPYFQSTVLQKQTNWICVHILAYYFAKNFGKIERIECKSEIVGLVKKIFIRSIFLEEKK

[3] = biological target: T1, RFS1 (cShu subunit);RIP1 (cShu …); remark: listed apart in the source
[4] = biological target: T3, RFS1 E138A (Walker B);RIP1 (cShu subunit);SWS1 (cShu subunit) (Caenorhabditis elegans;Caenorhabditis …, UniProt P34348;Q21621;Q8MYM5 1-245;1-209;1-191, E138A||)
T3 sequence 1: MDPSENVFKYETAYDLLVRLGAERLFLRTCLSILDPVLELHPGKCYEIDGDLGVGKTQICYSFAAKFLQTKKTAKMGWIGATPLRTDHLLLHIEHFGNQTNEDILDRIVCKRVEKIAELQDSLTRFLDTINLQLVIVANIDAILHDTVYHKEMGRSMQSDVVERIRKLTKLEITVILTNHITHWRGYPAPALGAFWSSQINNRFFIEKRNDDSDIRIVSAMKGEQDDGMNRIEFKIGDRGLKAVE
T3 sequence 2: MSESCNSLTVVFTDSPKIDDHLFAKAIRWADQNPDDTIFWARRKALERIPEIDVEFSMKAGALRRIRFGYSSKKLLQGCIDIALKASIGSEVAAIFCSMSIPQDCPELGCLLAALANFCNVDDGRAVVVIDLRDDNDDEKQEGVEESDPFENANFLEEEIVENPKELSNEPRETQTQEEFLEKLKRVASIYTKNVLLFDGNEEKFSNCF
T3 sequence 3: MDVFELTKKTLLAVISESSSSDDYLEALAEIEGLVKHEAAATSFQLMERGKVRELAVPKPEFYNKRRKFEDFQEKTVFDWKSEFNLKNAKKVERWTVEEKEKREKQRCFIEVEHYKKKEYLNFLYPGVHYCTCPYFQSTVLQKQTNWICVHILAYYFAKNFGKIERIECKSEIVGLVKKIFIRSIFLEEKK

[5] = biological target: T2, RFS1 K56A (Walker A);RIP1 (cShu …); remark: listed apart in the source
[6] = biological target: T1, RFS1 (cShu subunit);RIP1 (cShu …); remark: listed apart in the source
[7] = biological target: T3, RFS1 E138A (Walker B);RIP1 (cShu …); remark: listed apart in the source
[8] = biological target: T2, RFS1 K56A (Walker A);RIP1 (cShu …); remark: listed apart in the source
[9] = biological target: T1, RFS1 (cShu subunit);RIP1 (cShu …); remark: listed apart in the source
[10] = biological target: T3, RFS1 E138A (Walker B);RIP1 (cShu …); remark: listed apart in the source

B1: ds21 (dsDNA)
DNA 1: ACTTACAGCACAGCGGTTTTT
DNA 2: AAAAACCGCTGTGCTGTAAGT
binding result [1]: no binding

B2: ss21 (ssDNA)
DNA: ACTTACAGCACAGCGGTTTTT
binding result [1]: no binding

B3: 5'-overhang (20 nt) (mixed)
DNA 1: TTTTTTTTTTTTTTTTTTTTCTTGACAAGCTTGCGCACT
DNA 2: AGTGCGCAAGCTTGTCAAG
Kd [2]: 4.7 ± 0.2 µM
Kd [3]: 3.8 ± 0.3 µM
Kd [4]: 1.2 ± 0.1 µM
Kd [5]: 4.5 ± 0.3 µM
Kd [6]: 4.2 ± 0.5 µM
Kd [7]: 3.9 ± 0.1 µM
Kd [8]: 3.9 ± 0.4 µM
Kd [9]: 0.695 ± 0.003 µM
Kd [10]: 0.76 ± 0.04 µM

B4: ss39 (ssDNA)
DNA: TTTTTTTTTTTTTTTTTTTTCTTGACAAGCTTGCGCACT
Kd [2]: 3.3 ± 0.1 µM
Kd [3]: 2.9 ± 0.3 µM
Kd [4]: 2.2 ± 0.1 µM
Kd [5]: 3.3 ± 0.2 µM
Kd [6]: 2.9 ± 0.1 µM
Kd [7]: 2.7 ± 0.2 µM
Kd [8]: 3 ± 0.1 µM
Kd [9]: 1 ± 0.1 µM
Kd [10]: 1 ± 0.02 µM

B5: Fork (20 nt) (mixed)
DNA 1: TTTTTTTTTTTTTTTTTTTTCTTGACAAGCTTGCGCACT
DNA 2: AGTGCGCAAGCTTGTCAAGGCACTTTTTTTTTTTTTTTT
Kd [2]: 2.5 ± 0.1 µM
Kd [3]: 0.5 ± 0.02 µM
Kd [4]: 0.38 ± 0.03 µM
Kd [5]: 2.5 ± 0.3 µM
Kd [6]: 2.8 ± 0.3 µM
Kd [7]: 1.9 ± 0.2 µM
Kd [8]: 2.68 ± 0.08 µM
Kd [9]: 0.21 ± 0.02 µM
Kd [10]: 0.14 ± 0.01 µM

B6: ds39 (dsDNA)
DNA 1: TTTTTTTTTTTTTTTTTTTTCTTGACAAGCTTGCGCACT
DNA 2: AGTGCGCAAGCTTGTCAAGAAAAAAAAAAAAAAAAAAAA
binding result [5]: no binding
binding result [6]: no binding
binding result [7]: no binding

B7: ss26 (ssDNA)
DNA: ACTGCCCTTACAGCACAGCGGTTTTT
Kd [1]: 4.2 ± 0.4 µM

B8: 3'-overhang (20 nt) (mixed)
DNA 1: CTTGACAAGCTTGCGCACT
DNA 2: AGTGCGCAAGCTTGTCAAGGCACTTTTTTTTTTTTTTTT
binding result [6]: no binding

B9: 5'-overhang (10 nt) (mixed)
DNA 1: ACTGCCCTTACAGCACAGCGG
DNA 2: TTTTTTTTTTCCGCTGTGCTGTAAGGGCAGT
binding result [1]: no binding

B10: ss31 (ssDNA)
DNA: ACTGCCCTTACAGCACAGCGGTTTTTTTTTT
Kd [1]: 3.2 ± 0.3 µM

B11: Fork (10 nt) (mixed)
DNA 1: ACTGCCCTTACAGCACAGCGGTTTTTTTTTT
DNA 2: TTTTTTTTTTCCGCTGTGCTGTAAGGGCAGT
binding result [1]: no binding

B12: 3'-overhang (10 nt) (mixed)
DNA 1: ACTGCCCTTACAGCACAGCGGTTTTTTTTTT
DNA 2: CCGCTGTGCTGTAAGGGCAGT
binding result [1]: no binding

B13: 5'-overhang (5 nt) (mixed)
DNA 1: ACTGCCCTTACAGCACAGCGG
DNA 2: TTTTTCCGCTGTGCTGTAAGGGCAGT
binding result [1]: no binding

B14: Fork (5 nt) (mixed)
DNA 1: ACTGCCCTTACAGCACAGCGGTTTTT
DNA 2: TTTTTCCGCTGTGCTGTAAGGGCAGT
binding result [1]: no binding

B15: ds26 (dsDNA)
DNA 1: ACTGCCCTTACAGCACAGCGGTTTTT
DNA 2: AAAAACCGCTGTGCTGTAAGGGCAGT
binding result [1]: no binding

B16: 3'-overhang (5 nt) (mixed)
DNA 1: ACTGCCCTTACAGCACAGCGGTTTTT
DNA 2: CCGCTGTGCTGTAAGGGCAGT
binding result [1]: no binding
